According to patent publication US20030100489:

T1: GST-p15
T1 chain: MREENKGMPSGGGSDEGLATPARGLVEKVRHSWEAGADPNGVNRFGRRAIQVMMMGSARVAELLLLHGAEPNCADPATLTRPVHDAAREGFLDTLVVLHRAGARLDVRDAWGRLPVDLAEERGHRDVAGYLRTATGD

T2: GST-p16 fusion protein
T2 chain: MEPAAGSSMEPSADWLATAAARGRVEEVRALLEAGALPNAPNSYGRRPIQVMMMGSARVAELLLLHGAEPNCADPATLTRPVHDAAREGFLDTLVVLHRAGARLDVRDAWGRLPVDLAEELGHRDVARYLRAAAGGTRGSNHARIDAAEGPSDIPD

T3: p15
T3 chain: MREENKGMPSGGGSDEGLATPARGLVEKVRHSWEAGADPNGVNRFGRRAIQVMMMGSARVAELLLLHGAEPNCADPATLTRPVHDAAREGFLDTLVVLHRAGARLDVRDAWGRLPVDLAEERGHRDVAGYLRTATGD

T4: p16
T4 chain: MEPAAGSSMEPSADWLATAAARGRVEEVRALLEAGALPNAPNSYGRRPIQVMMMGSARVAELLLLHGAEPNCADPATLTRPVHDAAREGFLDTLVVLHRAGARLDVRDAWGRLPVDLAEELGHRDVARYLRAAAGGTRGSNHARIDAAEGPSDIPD


Legend:
GST-p15 = target: T1, GST-p15
GST-p16 fusion protein = target: T2, GST-p16 fusion protein
p15 = target: T3, p15
p16 = target: T4, p16

Sequence of p21, P38936 (P38936 whole entry, the tested form may be a part): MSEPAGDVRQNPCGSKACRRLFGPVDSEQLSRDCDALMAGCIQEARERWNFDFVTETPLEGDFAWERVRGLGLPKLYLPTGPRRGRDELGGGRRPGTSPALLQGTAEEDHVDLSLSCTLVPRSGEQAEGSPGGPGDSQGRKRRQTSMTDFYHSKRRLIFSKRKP

Protein	kinase activity of CDK4 (GST-RB phosphorylation) (GST-p15)	kinase activity of CDK4 (GST-RB phosphorylation) (GST-p16 fusion protein)	CDK4 kinase activity (GST-RB phosphorylation) (p15)	CDK4 kinase activity (GST-RB phosphorylation) (p16)	ability of CDK4 to phosphorylate RB (p16)	RB phosphorylation by cyclin D/CDK4 (GST-RB substrate) (p21, P38936)	CDK4 kinase activity (GST-RB phosphorylation) (p21, P38936)	CDK4 kinase activity (GST-RB phosphorylation) (p27)
CDK4 (wild-type) (protein) MATSRYEPVAEIGVGAYGTVYKARDPHSGHFVALKSVRVPNGGGGGGGLPISTVREVALLRRLEAFEHPNVVRLMDVCATSRTDREIKVTLVFEHVDQDLRTYLDKAPPPGLPAETIKDLMRQFLRGLDFLHANCIVHRDLKPENILVTSGGTVKLADFGLARIYSYQMALTPVVVTLWYRAPEVLLQSTYATPVDMWSVGCIFAEMFRRKPLFCGNSEADQLGKIFDLIGLPPEDDWPRDVSLPRGAFPPRGPRPVQSVVPEMEESGAQLLLEMLTFNPHKRISAFRALQHSYLHKDEGNPE	Like p16, the p15-GST fusion protein was able to inhibit the kinase activity of CDK4	Like p16, the p15-GST fusion protein was able to inhibit the kinase activity of CDK4	upon addition of increasing amounts of either p16- or p15containing lysate to the CDK4/cyclin D mixture, the wild-type CDK4 was inhibited	upon addition of increasing amounts of either p16- or p15containing lysate to the CDK4/cyclin D mixture, the wild-type CDK4 was inhibited	In response to increasing amounts of p16, corresponding decreases in the ability of CDK4 to phosphorylate RB was observed	Addition of increasing amounts of p21 resulted in the accumulation of cyclin D/CDK4/p21 ternary complexes with a corresponding inhibition of RB phosphorylation	–	–
CDK4 Arg24-Cys mutant (protein) MATSRYEPVAEIGVGAYGTVYKACDPHSGHFVALKSVRVPNGGGGGGGLPISTVREVALLRRLEAFEHPNVVRLMDVCATSRTDREIKVTLVFEHVDQDLRTYLDKAPPPGLPAETIKDLMRQFLRGLDFLHANCIVHRDLKPENILVTSGGTVKLADFGLARIYSYQMALTPVVVTLWYRAPEVLLQSTYATPVDMWSVGCIFAEMFRRKPLFCGNSEADQLGKIFDLIGLPPEDDWPRDVSLPRGAFPPRGPRPVQSVVPEMEESGAQLLLEMLTFNPHKRISAFRALQHSYLHKDEGNPE	–	–	the mutant CDK4 was relatively unaffected	the mutant CDK4 was relatively unaffected	–	–	the particular mutation, Arg24-Cys, did not effect the binding or inhibitory ability of either of those proteins	the particular mutation, Arg24-Cys, did not effect the binding or inhibitory ability of either of those proteins
